Laboratory results as given in article PMC3706390.
Residue numbers refer to the chain shown, from its start. Names may count otherwise.

Key:
[1] = target: T1, L30 (ribosomal protein L30) wild-type (rat, UniProt P62890 1-115); test: EMSA; 5 mM Mg2+; 30 mM Tris-HCl pH 8.0, 75 mM KCl, 5 mM MgCl2, 1 mM DTT, 0.04 ug/uL BSA, 10% glycerol, 50 ng/uL yeast tRNA, 30 C 15 min; EMSA gels 0.5X TBE at 4 C; RNase digesti
[2] = target: T1, L30 (ribosomal protein L30) wild-type; test: UV cross-linking; 30 mM Tris-HCl pH 8.0, 75 mM KCl, 5 mM MgCl2, 1 mM DTT, 0.04 ug/uL BSA, 10% glycerol, 50 ng/uL yeast tRNA, 30 C 15 min; EMSA gels 0.5X TBE at 4 C; RNase digesti

GGGACCGGAGUGUCGCAAGACGCAGAGAUGGUCC (structured_RNA) [L30 RNA (stem-loop of L30 pre-mRNA)]
Kd [1]: 170 nM

B1: PHGPx SECIS wild-type (UV cross-linking) (structured_RNA)
RNA: CUGCCCUGUGACCCCUGGAGCCUUCCACCCCGGCACUCAUGACGGUCUGCCUGAAAACCAGCCCGCUGGUGGGGCAGUCCCGAGGACCUGGCGUGCAUCCCCGCCGGAGGAAGGUCCAGACGCUGUGGCC
binding result [2]: binds

B2: PHGPx SECIS U40C (structured_RNA)
RNA: B1 RNA with U40C
binding result [2]: no binding
